From patent publication US20240181135A1, “BIOCHEMICAL ACTIVATION OF DYSFUNCTIONAL SKELETAL STEM CELLS FOR SKELETAL REGENERATION” (The Board of Trustees of the Leland Stanford Junior …, priority 2021, published 2024) come the findings set out here.

This experiment has as its system femoral fractures of ‘2-mo’ mice. As to the kind of experiment: Hydrogels containing recombinant Csf1 applied to femoral fractures of young mice (μCT and flow cytometry). The format is in vivo, mouse. The conditions noted are these: 5 μg recombinant Csf1 in hydrogel, versus PBS. From the text: We also tested whether these increases in Csf1 affected bone maintenance and regeneration. […] Unexpectedly, however, femora harvested from transgenic mice at post-fracture day-21 had decreased mechanical strength compared to wild-type controls despite having increased BMD and similar callus volume (FIG. 3p-q & FIG. 11g). […] In total, SSC lineage derived Csf1 might drive increased bone resorption by stimulating higher osteoclast activity, and this activity needs to be maintained and finely balanced for proper bone health.
Bi-cortical femoral fracture: Animals were anaesthetized using aerosolized isoflurane and analgesia was administered before incision. The femur was exposed following muscle distraction and lateral dislocation of the patella. […]
Micro-computed tomography: Femora were harvested and cleaned of soft tissue. […] Reconstructed samples were analyzed using CT Analyser and CTvox software (Bruker). Trabecular bone parameters of uninjured femur bones were assessed by analyzing a region of 200 sections which was defined 50 sections distal of the end of the growth plate. Fracture calluses were analyzed by selecting 150 sections in both directions of the fracture gap yielding a total area of 300 sections. […]
Background: Flow cytometry measures light scatter and fluorescence of single cells or particles in a stream.

B1: recombinant Csf1: recombinant Csf1 (5 μg) in hydrogel with defined release kinetics, applied to fractures (protein, UniProt P07141 33-552, looked up)
Macrophage colony-stimulating …: KEVSEHCSHMIGNGHLKVLQQLIDSQMETSCQIAFEFVDQEQLDDPVCYLKKAFFLVQDIIDETMRFKDNTPNANATERLQELSNNLNSCFTKDYEEQNKACVRTFHETPLQLLEKIKNFFNETKNLLEKDWNIFTKNCNNSFAKCSSRDVVTKPDCNCLYPKATPSSDPASASPHQPPAPSMAPLAGLAWDDSQRTEGSSLLPSELPLRIEDPGSAKQRPPRSTCQTLESTEQPNHGDRLTEDSQPHPSAGGPVPGVEDILESSLGTNWVLEEASGEASEGFLTQEAKFSPSTPVGGSIQAETDRPRALSASPFPKSTEDQKPVDITDRPLTEVNPMRPIGQTQNNTPEKTDGTSTLREDHQEPGSPHIATPNPQRVSNSATPVAQLLLPKSHSWGIVLPLGELEGKRSTRDRRSPAELEGGSASEGAARPVARFNSIPLTDTGHVEQHEGSSDPQIPESVFHLLVPGIILVLLTVGGLLFYKWKWRSHRDPQTLDSSVGRPEDSSLTQDEDRQVELPV
modifications: in hydrogel
notes: recombinant Csf1 (5 μg) in hydrogel with defined release kinetics, applied to fractures
Consider B1, for which the “Fracture healing (μCT of day-10 calluses)” value was “impaired healing” and the “SSC frequency at day-10 (flow cytometry)” value is recorded as “without alteration of SSC frequency”.
